Test results from a protein production outcome set (Wang et al. 2014).

Experiment: label from the status in PepcDB records

Sequence | protein production
MTKKEKGTMMTLAAGLAWGISGISGQYLMSHGVHVNLLTSLRLLITGIFLLSLARSKQKEHLVAAWKQPKFLKQVLLFSIFGLVLNQYAFLRAIHLTNAGTATVLQYMAPILILSIVCILNRQRPTSFEIIAIAMAILGTYMIATHGKLGSLAITPKGLMWGLGSAITYSIYILLPVKLIHEWGSTIVIGSGMFIGGILFSLVTKAWQYPLQINVMSILAYIGIIGIGTIFAYTFFLKGVSIVGAVKGSLLASVEPVSSVFLTVLVLGEIFYPIDLLGMLFIFLAVTLISYKDLIALKKMKRVR | failed
MIFVPIIGWLALFGYGVRLVNEFIEGRYEGPIKLDFMEDLKFGFMVFLKSLPFYIIYIIILFAAMYVSEGLGNIISLLLGFFVVPMLAVNFFRKQTVESFFEFSVLNVVRDNLGEYIITVLKQYALVIIFMVLSIVLVGIPGMLFTNSIFVANMYGRLVERKAEASL | failed
MMKKLTALFVASTLALGAANLAHAAETTTAPSDSKPMMMHHKGGPGQHDMMFKGLNLTDAQKQQIRDIMKSQRENMKRPSLEERRAMHDLIASDTFDKAKAEAQIDKMEAQHKAMALSRLETQNKIYNILTPEQKKQFNANFEKHLTERNAPAGKMPAPAE | failed
MKLATFDDGSRDGRLLVVARDLGHAVDASDIATSLQVALENWPQVEARLQALYQQLNDDAVAGAFALDLARLAAPLPRASQWLDGSCFLSHGALMQKAFNLDPIEGVEHTPLIYQGASDDFLGPLADIPLPSEAHGIDFEGEFAVLLDDVPMGCPAEQALQHVRLILQLNDVSLRALAPREMKTGFGFLQAKPASSFAPVAVTPDELGEAWRDGRVHLPLHVHWNGEWFGHPHGGAMHFGFHQLIAHAALTRRLSAGTLLGSGTVSNAERSVGSACIAERRAIETIACGAPRTAFMRFGDRVRMEARGPEGEVLFGAIDQRVVRGGWPCE | failed
ATKEFIYLVRGMTPEQGQAALDLKVPGVYGIEEFRRFYPAGDVTAHMVGFTDLDDHGREGVELAYDDWLAGVPGKRQVIKDRRGRLIKDVQVTKNAKAGKTLALSID | failed
MEYVYAALILNEADEEINEDNLTDVLDAAGVDVEESRVKALVAALEDVDIEEAVDQAAAAPVPASGGAAAPAEGDADEADEADEEAEEEAADDGGDDDDDEDDEASGEGLGELFGLEHHHHHH | not failed
MAEEEVGNSQRQSEEIEAMAAIYGEEWCVIDENAKIFCIRVTDFMDDPKWTLCLQVMLPSEYPGTAPPSYQLNAPWLKGQERADLSNSLEEIYVHNMGESILYQWVEKIRDALIQKSQITEPDPDVKKKTEEVEVESEEDPILEHPPENPVKTLDLKISEETQPETEELPPVAHGVPITDRRSTFQAHVAPVVCPEQVKLVLAKLYENKKIASATHNIYAYRIFCEDKQTFLQDCEDDGETAAGGRLLHLMEILNVKNVMVVVSRWYGGILLGPDRFKHINNCARNILVEKNFTNTPDESTKNLGKKKVKKDKKKNDH | failed
MITIDPEYFEILKEFGAERVVRCYQCGTCTGICPVSTTDASFPRKPVLLSRFGVGEVIENFEEAWLCLSCNLCTEFCPRDVKPSETMLAIKRVLVENGKTPPYIRDFFQLEHHHHHH | failed
VMPLILLPAVDVVEGRAVRLVQGKAGSQTEYGSAVDAALGWQRDGAEWIHLVDLDAAFGRGSNHELLAEVVGKLDVQVELSGGIRDDESLAAALATGCARVNVGTAALENPQWCARVIGEHGDQVAVGLDVQIIDGEHRLRGRGWETDGGDLWDVLERLDSEGCSRFVVTDITKDGTLGGPNLDLLAGVADRTDAPVIASGGVSSLDDLRAIATLTHRGVEGAIVGKALYARRFTLPQALAAVRD | not failed
MSLLEKDINLKIFKGNLIFTKTSDKFTIMKDSYIVVIDGKIASVSSNLPDKYKGNPIIDFRNNIIIPGMNDLHAHASQYKNLGIGMDKELLPWLNNYTFPEEAKFLNVDYAKKTYGRLIKDLIKNGTTRVALFATLHKDSTIELFNMLIKSGIGAYVGKVNMDYNCPDYLTENYITSLNDTEEIILKYKDKSNIVKPIITPRFVPSCSNELMDGLGKLSYKYRLPVQSHLSENLDEIAVVKSLHKKSNFYGEVYDKFGLFGNTPTLMAHCIHSSKEEINLIKRNNVTIVHCPTSNFNLGSGMMPVRKYLNLGINVVLGSDISAGHTCSLFKVIAYAIQNSKIKWQESGKKDMFLSTSEAFYMATKKGGSFFGKVGSFEEGYDFDALVINDSNLYPEDYDLTERLERFIYLGDDRNIMKRYVCGNEIFGPKFEGHHHHHH | not failed
MSLTINVGLLVDETGPTSDVGKGYSLGAELAFKYFNEKGIYTKDGVRVNINYIKRDYAYNPTTAEEYYREFRDRYGVIAIIGWGTADTEKLSDQVDTDKITYISASYSAKLLVKPFNFYPAPDYSTQACSGLAFLASEFGQGKLALAYDSKVAYSRSPIGAIKKAAPSLGLQVVGDYDLPLRATEADAERIAREMLAADPDYVWCGNTISSCSLLGRAMAKVGLDAFLLTNVWGFDERSPQLIGEGGYGKVFGISPFIYPMFGQDVEGIQTIFEAARMNGVSEDQINLRVVQGFVNVWLLIKAIESVTSQDLQERGGEALKEALEANTFDLGGITADTIDYEPGFHLAYRKVFIIKLGENGELQLMGKFEAPSQVDCARYTIEEGHHHHHH | not failed
MFRPPSIKDAKKIWELIGRCKPLDINSPYCYALIGRDFFDSSIVYEEEGRIKGVVIGYLRPRAPERLFVWQVAIEAKSRGKGIAKRAIEAILKNLERKGHCIQAIEATYTPSNLASKALFHALGREWKVVWIEENFLEGALLSAQEAHEEEWLITLPFSSEALGVQGANHANL | failed
GPSSSHTVGPMLAANAFLQLLEQKNLFDKTQRVKVELYGSLALTGKGHGTDKAILNGLENKAPETVDPASMIPRMHEILDSNLLNLAGKKEIPFHEATDFLFLQKELLPKHSNGMRFSAFDGNANLLIEQVYYSIGGGFITTEEDFDK | not failed
MVSAFNTGRTDDVDEYIHPDYLNPATLEHGIHTGPKAFAQLVGWVRATFSEEARLEEVRIEERGPWVKAYLVLYGRHVGRLVGMPPTDRRFSGEQVHLMRIVDGKIRDHRDWPDFQGTLRQLGDPWPDDEGWRP | not failed
MAIKFQYNKTSLQQLEKQLKVRVRTLPIIKNKESALRMEVKRCKTEAAGLEERLEKQIQAYEAMFALWNEFDASLIKVSDVHLGIKKIAGVRVPLLENVDFDIRPYSLFNSPKWYSDGIYLLKGLAQTAIEREFMLAKLNLLEHARKKTTQKVNLFEKVQIPGYQDALRKIKRFMEDEENLSKSSQKILKSIQEKRKEAEA | not failed
MGRPRVARLDRERIAEAALELVDRDGDFRMPDLARHLNVQVSSIYHHAKGRAAVVELVRHRVVREIDGSAFERLPWDEAFSEWARSYRAAFSRHPTAIRLLATETVRDPGSLSVYHSAAAGLRGAGFPDDHIMAVITAAENFLLGAALDAAAPEVMIEADSTTTDDALTRALAAAPRGPERAEQAFELGLAALLAGFHHLLQECGAVQR | not failed
MGNGLAKCLIDGDTETFWHAKWQGGSDPLPYDIVIDMKQNIQIAQVELLPRGRGSNNPIKVVEFAASEDNVNWTPIGRFGFTNQDAALEYYVKSIKARYIRLTIPDDGGNSTVAAIRELDVKGTIINLEHHHHHH | failed
MGTMNVVGLAIYLYAGFLSFIFGFISLYAFIKYSKLERKNKEIIYVYVDNLKNFSPYMFYSILLTFTIVFVIFALFICFVFNFDLYLGLTMLFSYFLIIYLFCFKKYRVEIYKDGFYGVFQN | failed
MDETEHMPRYTLTLVDSTGAMEPLILMDDDLKSIAAKLEGRVSAKTRGRRPRGTGGISATPKGYRAYSTVTDPLTGKDHRVSGFGRTRSQAEARLKEKLAEFDRTHRVGYVRPPTVAEWMDHWLTDVCKPRLKPRTWGTYASVIANNIVPSIGAVRLDELKPAHFRRMERYVMDEQGKSSGTAGSAWRTLHKALEDAVLEGVIERNPAVKGTAPRVALKERAALTPEQAADLIAAETDDTWRLMWMLAFMTGMRQGERLGLTEDELRRDGDRLIILVEWQAQHLTKREVEGLPKGVECTPLGNGMYRTRPKTEKGRRAIPLPEALADQLLAYIERHGVNGDGLVFHDDRGLPLTGCVERRRWYRALDRVGLGHEYVPHSARHTTATILNRLGLDDVTRTAIMGHSRVSTTNEIYTHVELDRLVAATDGVERAIEG | failed
MKMISTIQKKETVMVAPIPAKRGRKPAVATAPATGQVQSLTRGLKLLEWIAESNGSVALTELAQQAGLPNSTTHRLLTTMQQQGFVRQVGELGHWAIGAHAFMVGSSFLQSRNLLAIVHPILRNLMEESGETVNMAVLDQSDHEAIIIDQVQCTHLMRMSAPIGGKLPMHASGAGKAFLAQLSEEQVTKLLHRKGLHAYTHATLVSPVHLKEDLAQTRKRGYSFDDEEHALGLRCLAACIFDEHREPFAAISISGPISRITDDRVTEFGAMVIKAAKEVTLAYGGMR | not failed
MRDHPADRLQSITVTAFYQEPNVPTHSLSDYTSWIERTWQGQVSFTELVTYAETLNSHPALCAALYRTWLQRNTGVFNSVAWFNLGVILFAENNLIDSIEAFQKALALSPAFPQARINLGLALERQGNAEAAIEQWQAVVENAITPEADQNTGPNQADQIKNLTMALNNIGRLQETRRQYQAATQALEKSLQLDPDQPDAIHHLIFQRQKQCQWPVYAPVGKVTEAVLHEHTSALAMLNISDAPEAQLTAALNYSRRKIPADLPRLSPANGYRHDKIRVAYCSSDFCTHPVAMLTVELFEHHDKNRFETYAFCWSPDDGSTLRQRILSAVDHYIPVHGKSDDEVAQLIRQHEIDILIDLQGQTSGAKTRMLAMRPAPMQITYLGLPATTGLPGIDYVIADRYLIPEEYARFYSEKPLYMPDVYQVSDRKREHSPAPTRKDCGLPARKFVFCSFNNNHKYTLEVFTTWMNILRRVPNSVLWLLADNPWARENLQKQAKAQGIDPKRLVFAERTMPADYLARYLVADLFLDTFPFNAGTTANDALWMGLPVLTMSGRSFASRMAGALLTAADLPELITHDLQTYEDKAVALAADAKARKTMRQKLALAKESGPLFDSLRFTRNLEQQYIALVSELQNPSQHINISAQPEPTKLGEPAQPNPIIATVQEAEALQARGDTQGAIQLYRQWLEHAHSGDEWIAQFNLGVLLRDGGDITGAQQAFQAVLKQKPDFVQARAALGKLPAPVTTESQKHGAIIGPLQTNSPISTKSKEQITQIFSETPKIKLLVEGWRGINHSFALVNQYHLYEWMRSSQLHIYHRDMPLLFSHWETNKNRGNTGLPGTYSQRLAQVQHWSGQTYDACFRIYSPVTLAPDDKHPVSTFLVTELGLDETQIAHFRPNLKAYFNMGGNIVTPSHWSKERIIEAGIPAEHIHLISHGVASNIFHPMHSDERAIHRQRLGFDREAVIFLNVAAPIWNKGLDLLIQAFVQCFHQNPHTRLLIKDQQAVYGISTKDTVLREITLLGESKNESLLNAIRVIPDLNLLQLRELYCIADYYVSPYRAEGFNLPVIEALVCGTPVIVTEGGATQDFCSEKNALFIEAVPYRNVKINDRHVNAYQAPILDSLITHLNVCAQDKPFSESQRLQNAASIAKNFTWAKAADTISRLFTQSNDCNTSTSQITGALHEEPQYCN | failed
HKEFAVTMRPTEASERCHLRGSYTLRAGESALELWGGPEPGTQLYDWPYRFLRRFGRDKVTFSFEAGRRCVSGEGNFEFETRQGNEIFLALEEAISAQKN | not failed
